How the values were obtained:
c-Src SH2 = test: SH2 binding enrichment of the phosphorylated peptide, bacterial display (enrichment ratio); higher = better substrate or ligand; peptides without Tyr show the background
SHP2-C SH2 = test: as above
Grb2 SH2 = Grb2 SH2 (UniProt P62993); test: as above
Fes = Fes (UniProt P07332); test: phosphorylation enrichment, bacterial display (enrichment ratio); higher = better substrate or ligand; peptides without Tyr show the background
Fer (mouse) = test: as above
c-Abl (mouse) = test: as above
MERTK = MERTK (UniProt Q12866); test: as above
Sequence of MERTK (Q12866 whole entry, looked up): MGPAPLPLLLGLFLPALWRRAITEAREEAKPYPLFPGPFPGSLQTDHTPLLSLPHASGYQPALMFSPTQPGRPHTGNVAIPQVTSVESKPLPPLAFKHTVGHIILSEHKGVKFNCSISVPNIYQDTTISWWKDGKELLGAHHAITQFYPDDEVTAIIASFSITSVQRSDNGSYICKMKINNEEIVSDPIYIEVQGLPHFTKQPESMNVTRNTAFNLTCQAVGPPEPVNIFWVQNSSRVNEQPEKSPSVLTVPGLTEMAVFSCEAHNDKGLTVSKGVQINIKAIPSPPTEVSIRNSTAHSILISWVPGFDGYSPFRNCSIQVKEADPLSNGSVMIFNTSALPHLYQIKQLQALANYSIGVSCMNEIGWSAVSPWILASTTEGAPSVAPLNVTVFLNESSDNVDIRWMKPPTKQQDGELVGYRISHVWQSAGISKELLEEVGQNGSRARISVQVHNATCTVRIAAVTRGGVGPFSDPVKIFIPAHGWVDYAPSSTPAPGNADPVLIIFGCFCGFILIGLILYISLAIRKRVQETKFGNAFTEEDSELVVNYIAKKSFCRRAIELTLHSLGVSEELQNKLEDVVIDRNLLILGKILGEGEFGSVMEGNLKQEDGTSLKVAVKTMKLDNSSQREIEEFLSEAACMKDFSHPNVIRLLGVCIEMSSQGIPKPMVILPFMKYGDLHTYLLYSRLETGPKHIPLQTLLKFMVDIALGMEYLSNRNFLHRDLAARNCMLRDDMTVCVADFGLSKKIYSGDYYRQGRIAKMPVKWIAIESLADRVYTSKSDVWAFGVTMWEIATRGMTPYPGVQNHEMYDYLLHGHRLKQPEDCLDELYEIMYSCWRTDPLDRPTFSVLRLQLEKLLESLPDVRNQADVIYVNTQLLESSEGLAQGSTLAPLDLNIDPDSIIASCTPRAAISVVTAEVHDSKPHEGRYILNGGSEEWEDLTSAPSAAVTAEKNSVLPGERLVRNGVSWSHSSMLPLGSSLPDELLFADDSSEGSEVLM

c-Src = test: as above
AncSZ = test: as above
FGFR3 = FGFR3 (UniProt P22607); test: as above
Jak2 = Jak2 (UniProt O60674); test: as above
Fyn = Fyn (UniProt P06241); test: as above
Sequence of Fyn (P06241 whole entry, looked up): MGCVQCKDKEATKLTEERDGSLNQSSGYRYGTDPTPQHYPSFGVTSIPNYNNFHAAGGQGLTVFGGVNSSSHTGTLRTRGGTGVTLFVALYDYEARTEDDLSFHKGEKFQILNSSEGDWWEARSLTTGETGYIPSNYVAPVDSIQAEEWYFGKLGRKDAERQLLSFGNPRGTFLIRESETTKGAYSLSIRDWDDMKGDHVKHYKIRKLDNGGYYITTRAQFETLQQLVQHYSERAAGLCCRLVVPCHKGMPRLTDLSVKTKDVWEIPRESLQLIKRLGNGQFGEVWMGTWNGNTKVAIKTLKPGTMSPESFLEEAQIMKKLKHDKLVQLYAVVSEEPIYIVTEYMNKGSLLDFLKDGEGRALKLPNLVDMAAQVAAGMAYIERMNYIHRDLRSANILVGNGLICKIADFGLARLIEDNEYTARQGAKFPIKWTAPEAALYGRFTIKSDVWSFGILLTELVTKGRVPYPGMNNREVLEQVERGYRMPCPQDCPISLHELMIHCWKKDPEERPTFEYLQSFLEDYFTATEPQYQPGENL

FGFR1 = FGFR1 (UniProt P11362); test: as above
Sequence of FGFR1 (P11362 whole entry, looked up): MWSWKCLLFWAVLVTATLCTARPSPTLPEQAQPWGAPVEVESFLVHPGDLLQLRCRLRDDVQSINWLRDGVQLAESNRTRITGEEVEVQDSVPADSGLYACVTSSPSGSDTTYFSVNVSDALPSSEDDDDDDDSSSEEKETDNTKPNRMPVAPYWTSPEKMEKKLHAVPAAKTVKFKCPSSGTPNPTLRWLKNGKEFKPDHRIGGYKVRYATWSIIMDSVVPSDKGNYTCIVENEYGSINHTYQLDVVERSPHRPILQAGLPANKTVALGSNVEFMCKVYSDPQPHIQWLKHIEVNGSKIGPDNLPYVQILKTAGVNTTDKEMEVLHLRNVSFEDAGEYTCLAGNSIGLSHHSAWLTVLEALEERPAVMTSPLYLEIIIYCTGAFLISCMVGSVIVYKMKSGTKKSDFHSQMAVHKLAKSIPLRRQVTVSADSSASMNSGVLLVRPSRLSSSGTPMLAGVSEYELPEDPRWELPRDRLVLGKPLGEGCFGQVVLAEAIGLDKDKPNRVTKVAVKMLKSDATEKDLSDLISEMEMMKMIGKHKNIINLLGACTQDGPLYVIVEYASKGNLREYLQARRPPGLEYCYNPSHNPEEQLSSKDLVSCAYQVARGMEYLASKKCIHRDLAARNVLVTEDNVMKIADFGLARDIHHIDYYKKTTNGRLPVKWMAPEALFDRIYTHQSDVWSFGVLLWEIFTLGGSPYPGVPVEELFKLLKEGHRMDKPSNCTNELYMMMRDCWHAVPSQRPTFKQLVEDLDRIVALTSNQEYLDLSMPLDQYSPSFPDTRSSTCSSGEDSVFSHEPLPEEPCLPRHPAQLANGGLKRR

Hck = Hck (UniProt P08631); test: as above
Sequence of Hck (P08631 whole entry, looked up): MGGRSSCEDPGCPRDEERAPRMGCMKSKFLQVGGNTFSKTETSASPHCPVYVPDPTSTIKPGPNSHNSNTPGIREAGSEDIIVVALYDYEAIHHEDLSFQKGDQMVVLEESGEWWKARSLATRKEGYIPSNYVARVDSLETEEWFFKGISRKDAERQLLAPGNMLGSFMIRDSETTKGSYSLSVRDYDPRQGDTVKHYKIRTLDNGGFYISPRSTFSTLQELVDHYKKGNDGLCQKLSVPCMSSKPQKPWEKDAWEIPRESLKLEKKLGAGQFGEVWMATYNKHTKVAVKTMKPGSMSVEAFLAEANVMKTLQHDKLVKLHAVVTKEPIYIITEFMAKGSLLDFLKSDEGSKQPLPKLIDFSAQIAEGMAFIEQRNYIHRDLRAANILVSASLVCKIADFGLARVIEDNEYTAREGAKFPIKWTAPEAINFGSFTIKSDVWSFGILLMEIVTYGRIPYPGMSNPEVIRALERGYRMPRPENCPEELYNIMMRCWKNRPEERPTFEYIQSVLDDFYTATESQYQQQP

EPHB2 = EPHB2 (UniProt P29323); test: as above
Sequence of EPHB2 (P29323 whole entry, looked up): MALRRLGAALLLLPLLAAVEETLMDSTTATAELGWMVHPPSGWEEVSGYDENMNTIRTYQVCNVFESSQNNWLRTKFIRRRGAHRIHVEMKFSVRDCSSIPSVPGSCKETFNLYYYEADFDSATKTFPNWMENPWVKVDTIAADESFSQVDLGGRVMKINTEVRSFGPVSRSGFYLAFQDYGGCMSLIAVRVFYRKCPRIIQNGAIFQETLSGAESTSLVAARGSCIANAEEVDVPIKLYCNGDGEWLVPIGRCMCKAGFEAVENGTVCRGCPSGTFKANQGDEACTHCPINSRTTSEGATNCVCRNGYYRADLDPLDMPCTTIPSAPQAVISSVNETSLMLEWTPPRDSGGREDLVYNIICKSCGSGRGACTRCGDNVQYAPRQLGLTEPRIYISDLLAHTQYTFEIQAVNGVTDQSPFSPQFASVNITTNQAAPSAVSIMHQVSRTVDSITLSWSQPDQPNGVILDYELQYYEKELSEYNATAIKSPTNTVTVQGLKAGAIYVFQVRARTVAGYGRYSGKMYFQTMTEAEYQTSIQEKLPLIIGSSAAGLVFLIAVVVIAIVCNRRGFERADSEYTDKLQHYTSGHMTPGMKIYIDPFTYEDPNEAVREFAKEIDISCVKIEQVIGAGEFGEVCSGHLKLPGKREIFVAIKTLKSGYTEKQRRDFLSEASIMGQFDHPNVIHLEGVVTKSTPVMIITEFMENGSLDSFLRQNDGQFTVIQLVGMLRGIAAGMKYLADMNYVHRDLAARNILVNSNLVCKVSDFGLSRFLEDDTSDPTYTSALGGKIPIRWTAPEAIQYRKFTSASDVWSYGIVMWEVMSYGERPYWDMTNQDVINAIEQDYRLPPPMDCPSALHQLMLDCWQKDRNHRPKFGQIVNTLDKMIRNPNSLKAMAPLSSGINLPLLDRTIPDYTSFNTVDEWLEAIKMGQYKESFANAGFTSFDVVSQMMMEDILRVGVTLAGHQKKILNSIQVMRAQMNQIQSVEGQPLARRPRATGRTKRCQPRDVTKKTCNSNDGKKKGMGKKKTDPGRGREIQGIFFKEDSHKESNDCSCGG

EPHB1 = EPHB1 (UniProt P54762); test: as above
Sequence of EPHB1 (P54762 whole entry, looked up, the tested form may be a part): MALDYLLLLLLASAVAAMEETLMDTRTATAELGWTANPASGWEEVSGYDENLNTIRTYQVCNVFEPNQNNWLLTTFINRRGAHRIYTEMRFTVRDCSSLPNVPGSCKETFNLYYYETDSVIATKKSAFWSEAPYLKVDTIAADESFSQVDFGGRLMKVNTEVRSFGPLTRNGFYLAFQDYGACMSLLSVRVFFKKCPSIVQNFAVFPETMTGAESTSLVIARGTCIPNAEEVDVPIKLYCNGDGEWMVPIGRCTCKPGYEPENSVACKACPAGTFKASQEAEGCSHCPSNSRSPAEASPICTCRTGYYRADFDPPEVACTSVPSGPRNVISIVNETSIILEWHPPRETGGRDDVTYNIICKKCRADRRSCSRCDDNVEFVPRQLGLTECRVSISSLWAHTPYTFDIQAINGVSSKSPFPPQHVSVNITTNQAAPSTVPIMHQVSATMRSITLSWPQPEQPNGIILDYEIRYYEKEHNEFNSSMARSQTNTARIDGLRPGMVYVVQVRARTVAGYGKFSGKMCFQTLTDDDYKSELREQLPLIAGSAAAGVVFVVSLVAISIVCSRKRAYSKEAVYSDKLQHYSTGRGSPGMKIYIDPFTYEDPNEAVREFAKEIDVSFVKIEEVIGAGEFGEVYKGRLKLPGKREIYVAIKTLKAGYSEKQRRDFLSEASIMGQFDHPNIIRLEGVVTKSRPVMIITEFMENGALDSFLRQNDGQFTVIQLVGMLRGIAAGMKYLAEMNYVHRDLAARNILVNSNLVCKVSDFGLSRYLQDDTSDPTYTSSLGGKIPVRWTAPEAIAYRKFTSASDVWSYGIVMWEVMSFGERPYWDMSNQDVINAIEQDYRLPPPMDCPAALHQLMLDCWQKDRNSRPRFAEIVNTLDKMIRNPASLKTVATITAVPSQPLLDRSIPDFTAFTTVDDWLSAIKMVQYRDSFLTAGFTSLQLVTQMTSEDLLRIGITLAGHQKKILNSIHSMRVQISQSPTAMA
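Wherever SH2 binding enrichment of the phosphorylated peptide, bacterial display is given: peptide library displayed on the E. coli surface as eCPX fusions, selected cells deep-sequenced, score is each peptide's frequency after selection divided by its frequency in the input.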
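Wherever phosphorylation enrichment, bacterial display is given: 11-residue human phosphosite peptides and single-mutation variants displayed on the E. coli surface, counted by deep sequencing, each peptide's frequency after selection divided by its frequency in the unselected input library; frequency after pTyr selection over input frequency; kinase dosed for 20-30% of maximal phosphorylation in three min.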

Sequence | SH2 binding enrichment (c-Src SH2) | SH2 binding enrichment (SHP2-C SH2) | SH2 binding enrichment (Grb2 SH2) | phosphorylation enrichment (Fes) | phosphorylation enrichment (Fer (mouse)) | phosphorylation enrichment (c-Abl (mouse)) | phosphorylation enrichment (MERTK) | phosphorylation enrichment (c-Src) | phosphorylation enrichment (AncSZ) | phosphorylation enrichment (FGFR3) | phosphorylation enrichment (Jak2) | phosphorylation enrichment (Fyn) | phosphorylation enrichment (FGFR1) | phosphorylation enrichment (Hck) | phosphorylation enrichment (EPHB2) | phosphorylation enrichment (EPHB1)
REGKIYEFNQV [ZNF665_Y162_H157R_YF] | 0.465 | 0.589 | 0.923 | 0.758 | 14.3 | 0.718 | 2.64 | 2.08 | 0.795 | 0.886 | 0.432 | 4.78 | 0.46 | 1.24 | 0.795 | 0.356
RISRKYKKVRF [F8_Y442_G439S] | 0.391 | 0.636 | 0.461 | 0.883 | 0.759 | 0.711 | 0.805 | 0.749 | 0.879 | 0.749 | 0.64 | 0.721 | 0.986 | 0.571 | 1.07 | 0.891
VCRHNYGVVES [HLA-DRB1_Y112_Y107V] | 1.13 | 0.801 | 0.828 | 0.793 | 0.428 | 0.543 | 0.484 | 0.361 | 0.768 | 0.566 | 0.659 | 0.398 | 0.547 | 0.484 | 1.5 | 0.82
TSPKSYPSQKH [CAP2_Y316] | 0.538 | 0.433 | 0.823 | 0.526 | 0.45 | 0.53 | 0.44 | 0.466 | 0.613 | 0.497 | 0.463 | 0.434 | 0.357 | 0.363 | 0.359 | 0.364
SHMVDYQPYRK [TEX37_Y25] | 0.445 | 0.365 | 0.735 | 0.83 | 0.575 | 0.91 | 0.575 | 0.673 | 0.759 | 0.505 | 0.719 | 0.59 | 0.47 | 0.701 | 0.402 | 0.609
RTCSSYTIEKI [PARP15_Y520_A521T] | 0.59 | 0.739 | 0.813 | 1.51 | 0.502 | 0.84 | 0.533 | 0.544 | 0.937 | 1.18 | 1.13 | 0.638 | 0.475 | 0.726 | 0.474 | 0.608
CRPPYYHRNCM [HGD_Y334_F329C] | 1.65 | 1.25 | 1.78 | 0.856 | 0.458 | 0.743 | 0.515 | 0.452 | 0.837 | 0.628 | 0.992 | 0.565 | 0.617 | 0.761 | 0.556 | 0.436
HSREDYFECFQ [ZIM2_Y411_Q408R] | 0.557 | 0.766 | 0.786 | 1.64 | 0.811 | 1.28 | 0.721 | 0.91 | 2.12 | 6.79 | 1.58 | 0.598 | 9.83 | 0.907 | 1.19 | 1.83
PPLMLYNPTTY [EGFR_Y270] | 0.74 | 1.28 | 1.45 | 10.3 | 0.613 | 0.541 | 0.472 | 0.645 | 0.518 | 0.498 | 0.625 | 0.633 | 0.43 | 1.01 | 0.718 | 1
AGREIYESDKC [TTN_Y4424] | 1.03 | 1.4 | 1.06 | 0.996 | 0.519 | 0.616 | 0.447 | 0.536 | 0.949 | 0.819 | 0.731 | 0.538 | 0.608 | 0.523 | 0.607 | 0.524
RDVEQYVNNVN [PCDH19_Y1097_L1094V] | 0.621 | 0.541 | 2.37 | 0.93 | 0.454 | 1.02 | 0.522 | 0.398 | 0.928 | 0.701 | 0.855 | 0.577 | 0.544 | 0.645 | 0.594 | 0.545
MGCVNYGAFIN [GLB1_Y485_R482C_YF] | 0.514 | 0.793 | 0.752 | 1.26 | 0.522 | 1.01 | 0.606 | 1.19 | 1.05 | 0.825 | 1.14 | 0.553 | 0.531 | 0.532 | 0.617 | 0.69
CPASVYTKRCS [CPT2_Y508_R503C] | 0.584 | 0.765 | 0.982 | 0.549 | 0.354 | 0.442 | 0.447 | 0.431 | 0.598 | 0.441 | 0.518 | 0.434 | 0.447 | 0.392 | 0.403 | 0.349
VDTAMYATMQR [TPO_Y55] | 1.55 | 0.764 | 0.878 | 0.706 | 0.519 | 0.705 | 0.764 | 3.92 | 0.697 | 0.507 | 0.531 | 3.02 | 0.518 | 5.09 | 0.672 | 0.568
HVPEEYKPKQG [SAXO2_Y37] | 0.512 | 0.674 | 0.956 | 1.17 | 0.386 | 0.943 | 0.423 | 0.685 | 0.827 | 0.519 | 0.867 | 0.449 | 0.366 | 0.62 | 0.434 | 0.493
LNLKEYNLVGG [GNAQ_Y356] | 1.17 | 0.844 | 0.783 | 0.867 | 0.685 | 0.709 | 0.424 | 0.561 | 1.23 | 0.698 | 0.793 | 0.529 | 0.357 | 0.485 | 0.411 | 0.307
KMGNEYVTKGQ [MYH7_Y410_V406M] | 0.408 | 0.576 | 0.713 | 0.523 | 0.385 | 0.326 | 0.374 | 0.344 | 0.447 | 0.447 | 0.418 | 0.358 | 0.375 | 0.451 | 0.353 | 0.367

Sequence | SH2 binding enrichment (c-Src SH2) | SH2 binding enrichment (SHP2-C SH2) | SH2 binding enrichment (Grb2 SH2) | phosphorylation enrichment (Fes) | phosphorylation enrichment (Fer (mouse)) | phosphorylation enrichment (c-Abl (mouse)) | phosphorylation enrichment (MERTK) | phosphorylation enrichment (c-Src) | phosphorylation enrichment (AncSZ) | phosphorylation enrichment (FGFR3) | phosphorylation enrichment (Jak2) | phosphorylation enrichment (Fyn) | phosphorylation enrichment (FGFR1) | phosphorylation enrichment (Hck) | phosphorylation enrichment (EPHB2) | phosphorylation enrichment (EPHB1)
SSNTEYLSASD [INSR_Y999_P997T] | 0.547 | 0.573 | 0.689 | 0.746 | 0.48 | 0.556 | 0.435 | 0.474 | 0.884 | 0.615 | 0.82 | 0.52 | 0.518 | 0.501 | 0.573 | 0.393
QPGTDYKIYRY [FN1_Y1970_L1974R] | 0.516 | 0.791 | 0.734 | 0.866 | 0.618 | 0.742 | 0.499 | 0.527 | 1.02 | 0.882 | 0.968 | 0.468 | 0.583 | 0.468 | 0.555 | 0.383
DENWFYTRPAS [RPS19_Y54_A57P] | 1.01 | 0.672 | 0.78 | 1.07 | 0.676 | 0.673 | 0.477 | 0.489 | 1.46 | 0.734 | 1.43 | 0.497 | 0.496 | 0.565 | 0.55 | 0.59
FEHVGYTTLNR [CHN1_Y148_YF] | 5.21 | 18.8 | 0.917 | 0.805 | 0.445 | 0.68 | 0.406 | 0.466 | 0.654 | 0.458 | 0.527 | 0.448 | 0.426 | 0.602 | 0.395 | 0.393
EEGNPYFSSTR [MCCC2_Y520_A524T_YF] | 0.549 | 0.588 | 0.884 | 0.814 | 0.413 | 0.585 | 0.349 | 1.14 | 0.865 | 0.621 | 0.823 | 0.505 | 0.484 | 0.595 | 0.527 | 0.509
PLDGEYFTLPI [TP53_Y327_Q331P] | 0.478 | 0.61 | 0.717 | 2.87 | 1.66 | 25 | 3.81 | 9.02 | 12.6 | 32.2 | 12.1 | 9.28 | 36.5 | 15.7 | 19.1 | 16.6
FRARAYSFRGP [CHGA_Y381_G382S] | 0.573 | 0.363 | 0.597 | 0.591 | 0.456 | 0.573 | 0.601 | 0.507 | 0.697 | 0.534 | 0.628 | 0.418 | 0.538 | 0.455 | 0.419 | 0.48
SNKLYYQLEQE [PDPR_Y110] | 2.13 | 0.725 | 1.17 | 1.19 | 0.601 | 1.11 | 3.9 | 2.36 | 1.37 | 4.95 | 1.27 | 1.52 | 5.94 | 0.922 | 0.761 | 0.903
SDVDLYQVRTA [PSMD9_Y70] | 0.444 | 0.599 | 0.705 | 0.738 | 0.648 | 0.735 | 0.411 | 1.89 | 0.792 | 0.505 | 0.645 | 1.41 | 0.419 | 4.25 | 0.538 | 0.555
RFGRKYKKVRF [F8_Y442_I438F] | 0.374 | 0.564 | 0.724 | 0.841 | 0.619 | 0.806 | 1.04 | 0.988 | 0.708 | 0.651 | 0.884 | 0.82 | 0.653 | 0.674 | 0.551 | 0.572
IYETDYYQKGG [INSR_Y1189_R1191Q] | 0.773 | 0.442 | 0.915 | 1.08 | 1.6 | 0.629 | 4.71 | 1.37 | 1.88 | 1.46 | 0.819 | 1.46 | 1.52 | 1.37 | 0.948 | 1.2
SDGHEYIYVDP [PDGFRB_Y579] | 0.557 | 0.662 | 0.779 | 0.988 | 1.66 | 1.6 | 0.92 | 2 | 3.82 | 5.43 | 1.62 | 1.07 | 8.64 | 1.2 | 1.72 | 2.17
FGSLLYKYAFK [FANCD2_Y458] | 0.485 | 0.731 | 0.922 | 1.04 | 0.324 | 0.627 | 0.433 | 0.392 | 0.839 | 0.684 | 0.858 | 0.366 | 0.352 | 0.379 | 0.391 | 0.468
EEQKRYFNAMK [SCN5A_Y1494_K1493R_YF] | 0.541 | 1 | 1.04 | 0.645 | 0.424 | 0.446 | 0.41 | 0.435 | 0.591 | 0.46 | 0.673 | 0.348 | 0.49 | 0.451 | 0.445 | 0.353
RVEDAYILTCN [CCT6A_Y229] | 0.671 | 0.54 | 0.663 | 0.928 | 4.93 | 0.565 | 0.498 | 1 | 1.07 | 0.689 | 0.772 | 0.839 | 0.721 | 0.692 | 0.487 | 0.515
PHQTIYSALMI [FGF23_Y70] | 0.495 | 0.598 | 0.68 | 3.94 | 20.3 | 20.6 | 13.1 | 10.4 | 1.26 | 1.61 | 1.7 | 12.7 | 1.88 | 12.8 | 4.45 | 5.93
